# B1: DUX4-s: short splice form of DUX4 (SEQ ID NO:112), keeps the double-homeobox domains, lacks the C-terminal activation domain (protein, listed as Homo sapiens)
# chain: MALPTPSDSTLPAEARGRGRRRRLVWTPSQSEALRACFERNPYPGIATRERLAQAIGIPEPRVQIWFQNERSRQLRQHRRESRPWPGRRGPPEGRRKRTAVTGSQTALLLRAFEKDRFPGIAAREELARETGLPESRIQIWFQNRRARHPGQGGRAPAQV
# Tested on: control human primary myoblasts
# Test: Expression microarray of primary myoblasts transduced with lentivirus carrying DUX4-fl, DUX4-s or GFP
# Description: Primary human myoblasts were collected and cultured as previously described (Snider et al., 2010). Primary myoblasts were maintained at or below 70% confluency for proliferation. For differentiation, cells were allowed to reach 95-100% confluency in growth medium. Once confluency was reached, the cells were changed to differentiation medium (F10 media supplemented with 1% horse serum, 10 μg/mL insulin, and 10 μg/mL transferrin, penicillin/streptomycin) and maintained for 4 days. Human RD cells were grown in DMEM in 10% bovine calf serum (Hyclone) and penicillin/streptomycin. The primary myoblasts were transduced with lentivirus carrying DUX-fl, DUX4- or GFP (MOI=15).
# Expression microarrays were performed on the transduced cells at 24 hours after transduction as follows. […] Samples were analyzed by Illumina Human Whole Genome microarrays. Probe intensities were corrected, normalized, and summarized by the Lumi package of Bioconductor (Du et al., 2008). Differentially expressed genes were identified by the LIMMA package of Bioconductor (Wettenhall and Smyth, 2004). Gene set enrichment analysis (GSEA) was performed using the Bioconductor GOstats package (Falcon and Gentleman, 2007).
molecule,measurement,setting,value
B1,fc of MGLL (expression array),Refseq NM_007283.5,−0.003305
same,STAT1 expression fc,"Refseq NM_007315.2, cultured human skeletal muscle",0.8235
same,fc of LGALS9 (expression array),Refseq NM_009587.2,1.706
same,FRAT2 expression fc,Refseq NM_012083.2,−0.05118
same,fc of CDC42EP4 (expression array),Refseq NM_012121.4,0.06633
same,CHORDC1 expression fc,Refseq NM_012124.1,0.1261
same,CLDN14 expression fc,Refseq NM_012130.2,−0.3006
same,TFIP11 expression fc,Refseq NM_012143.2,0.1124
same,SIRT1 expression fc,Refseq NM_012238.3,0.2071
same,KCNH4 expression fc,Refseq NM_012285.1,−0.07365
same,BAMBI expression fc,Refseq NM_012342.2,0.1101
same,fc of TINF2 (expression array),Refseq NM_012461.1,0.3861
same,CD24 expression fc,Refseq NM_013230.2,−0.3586
same,ZNF214 expression fc,Refseq NM_013249.1,0.166
same,TBK1 fc,Refseq NM_013254.2,0.3572
same,MYLIP expression fc,Refseq NM_013262.3,−0.2969
same,TRA2A expression fc,Refseq NM_013293.3,−0.1095
same,fc of EEF2K (expression array),Refseq NM_013302.3,−0.5322
same,SERTAD1 expression fc,Refseq NM_013376.3,0.41
same,fc of SLC25A24 (expression array),Refseq NM_013386.3,1.103
same,fc of CLIC4 (expression array),Refseq NM_013943.1,1.228
same,BZW2 expression fc,Refseq NM_014038.1,−0.4003
same,LRP10 fc,Refseq NM_014045.3,0.4158
same,fc of FAM156A (expression array),Refseq NM_014138.3,−0.1365
same,SMARCAL1 fc,Refseq NM_014140.2,0.01669
same,CCDC59 expression fc,Refseq NM_014167.2,0.2509
same,fc of TDRD7 (expression array),Refseq NM_014290.1,1.072
same,DDX58 expression fc,"Refseq NM_014314.3, cultured human skeletal muscle",0.02114
same,PDSS1 expression fc,Refseq NM_014317.3,−0.07459
same,AMACR expression fc,Refseq NM_014324.4,0.08431
same,PPP1R15A expression fc,Refseq NM_014330.2,0.5668
same,TSPAN13 expression fc,Refseq NM_014399.3,−0.1469
same,APOBEC3C fc,Refseq NM_014508.2,0.5827
same,EVC expression fc,"Refseq NM_014556.2, cultured human skeletal muscle",−0.3857
same,SCHIP1 expression fc,"Refseq NM_014575.2, cultured human skeletal muscle",0.06263
same,SLC40A1 expression fc,Refseq NM_014585.3,−0.4239
same,CDR2L fc,Refseq NM_014603.1,−0.203
same,TAX1BP3 fc,Refseq NM_014604.2,−0.341
same,CTR9 expression fc,Refseq NM_014633.3,−0.0216
same,SLC25A44 expression fc,Refseq NM_014655.1,−0.07654
same,MTSS1 fc,Refseq NM_014751.4,−0.4145
same,LBA1 fc,Refseq NM_014831.1,0.4958
same,KIAA0020 expression fc,Refseq NM_014878.4,0.01783
same,ABLIM3 fc,Refseq NM_014945.2,0.01495
same,WDR47 expression fc,Refseq NM_014969.4,0.1401
same,ARC expression fc,Refseq NM_015193.3,−0.188
same,fc of DENND5A (expression array),Refseq NM_015213.2,0.07991
same,fc of FEM1B (expression array),Refseq NM_015322.3,1.026
same,fc of PANX1 (expression array),Refseq NM_015368.3,1.233
same,fc of AASDHPPT (expression array),Refseq NM_015423.2,−1.246
same,MTHFD1L fc,Refseq NM_015440.3,0.3955
same,C2orf32 fc,Refseq NM_015463.1,0.07813
same,PVRL3 expression fc,Refseq NM_015480.1,0.4473
same,NGDN expression fc,Refseq NM_015514.1,0.4088
same,fc of RRM2B (expression array),Refseq NM_015713.3,0.6161
same,MBD2 expression fc,Refseq NM_015832.3,−0.07679
same,fc of MBTPS2 (expression array),Refseq NM_015884.1,1.035
same,ARS2 expression fc,Refseq NM_015908.4,−0.2002
same,GSTK1 fc,Refseq NM_015917.1,0.0593
same,NOP58 expression fc,Refseq NM_015934.3,0.2243
same,CRLF3 expression fc,Refseq NM_015986.2,−0.1449
same,fc of TTC15 (expression array),Refseq NM_016030.5,−0.1193
same,ISOC1 expression fc,Refseq NM_016048.1,−0.6187
same,MED31 expression fc,Refseq NM_016060.2,0.3123
same,fc of TRPV2 (expression array),Refseq NM_016113.3,0.3116
same,CERCAM fc,Refseq NM_016174.3,−0.1838
same,DBR1 expression fc,Refseq NM_016216.2,0.2247
same,POLR3K expression fc,Refseq NM_016310.2,0.05873
same,HERC5 expression fc,"Refseq NM_016323.2, cultured human skeletal muscle",1.329
same,fc of CENPF (expression array),Refseq NM_016343.3,−1.028
same,CWC15 expression fc,Refseq NM_016403.3,0.09338
same,fc of TMEM9 (expression array),Refseq NM_016456.2,−0.2052
same,RAB6B expression fc,Refseq NM_016577.3,0.007069
same,SLC15A3 expression fc,"Refseq NM_016582.1, cultured human skeletal muscle",0.7755
same,FKBP11 fc,Refseq NM_016594.1,0.3006
same,ARMCX1 fc,Refseq NM_016608.1,−0.06031
same,C8orf55 fc,Refseq NM_016647.2,−0.387
same,HOXC13 fc,Refseq NM_017410.2,0.444
same,USP18 expression fc,"Refseq NM_017414.3, cultured human skeletal muscle",0.996
same,PARP14 expression fc,"Refseq NM_017554.1, cultured human skeletal muscle",0.5211
same,fc of SLC43A3 (expression array),Refseq NM_017611.2,0.4376
same,NOTCH1 fc,Refseq NM_017617.3,−0.6695
same,KIF21A expression fc,Refseq NM_017641.2,0.01529
same,fc of AHI1 (expression array),Refseq NM_017651.3,−1.054
same,SAMD9 expression fc,"Refseq NM_017654.2, cultured human skeletal muscle",1.399
same,FAM46C expression fc,Refseq NM_017709.3,−0.1289
same,RETSAT expression fc,"Refseq NM_017750.2, cultured human skeletal muscle",−0.1731
same,LYAR expression fc,Refseq NM_017816.1,0.000875
same,ZSCAN2 expression fc,Refseq NM_017894.4,−0.1999
same,HERC6 expression fc,"Refseq NM_017912.3, cultured human skeletal muscle",0.5237
same,PID1 fc,Refseq NM_017933.3,0.314
same,ZNHIT6 expression fc,Refseq NM_017953.2,0.3265
same,C14orf102 expression fc,Refseq NM_017970.2,0.1769
same,fc of WIPI1 (expression array),Refseq NM_017983.4,0.07989
same,RNF31 fc,Refseq NM_017999.4,0.05142
same,FRMD4A fc,Refseq NM_018027.3,−0.5453
same,FAM90A1 expression fc,Refseq NM_018088.3,0.02937
same,fc of RBM23 (expression array),Refseq NM_018107.4,−0.07729
same,PNPO fc,Refseq NM_018129.2,−0.02588
same,SEC61A2 expression fc,Refseq NM_018144.2,0.209
same,NADSYN1 fc,Refseq NM_018161.4,0.1182
same,TMEM140 expression fc,"Refseq NM_018295.2, cultured human skeletal muscle",1.003
same,BRIX1 expression fc,Refseq NM_018321.3,0.2991
same,DRAM1 fc,Refseq NM_018370.2,−0.3649
same,LSG1 expression fc,Refseq NM_018385.1,−0.06468
same,TBC1D2 fc,Refseq NM_018421.2,0.2926
same,RRN3 expression fc,Refseq NM_018427.3,0.1072
same,ZNF302 fc,Refseq NM_018443.2,−0.01005
same,fc of GLT8D1 (expression array),Refseq NM_018446.2,−0.2715
same,BEX1 fc,Refseq NM_018476.3,−0.2346
same,SLC35E3 fc,Refseq NM_018656.2,0.4619
same,DEFB103B expression fc,Refseq NM_018661.3,−0.03507
same,fc of SULF2 (expression array),Refseq NM_018837.2,−0.04817
same,PDE7B fc,Refseq NM_018945.3,−0.5695
same,NANS expression fc,Refseq NM_018946.2,−0.006607
same,POLR1B expression fc,Refseq NM_019014.3,−0.1313
same,CCNJ expression fc,Refseq NM_019084.2,0.07916
same,fc of HOXA5 (expression array),Refseq NM_019102.2,−0.1759
same,PNO1 expression fc,Refseq NM_020143.2,0.2485
same,KTELC1 fc,Refseq NM_020231.3,0.1564
same,C1orf63 expression fc,Refseq NM_020317.3,−0.139
same,ZMIZ1 fc,Refseq NM_020338.2,−0.03787
same,TRIM49 expression fc,Refseq NM_020358.2,−0.01703
same,LYRM1 fc,Refseq NM_020424.2,0.01491
same,SLC44A2 fc,Refseq NM_020428.2,−0.3457
same,PCBP3 fc,Refseq NM_020528.1,0.2113
same,NFKBIA expression fc,"Refseq NM_020529.1, cultured human skeletal muscle",0.2751
same,fc of RCN3 (expression array),Refseq NM_020650.2,−0.2021
same,PELI1 expression fc,Refseq NM_020651.2,0.1483
same,fc of FAM62B (expression array),Refseq NM_020728.1,−1.387
same,HECW2 fc,Refseq NM_020760.1,0.06016
same,ZNF319 fc,Refseq NM_020807.1,−0.08179
same,OSBPL8 expression fc,Refseq NM_020841.4,1.055
same,USP29 expression fc,Refseq NM_020903.2,−0.09046
same,fc of RNF213 (expression array),Refseq NM_020914.3,0.6308
same,fc of FAM160B1 (expression array),Refseq NM_020940.3,0.6282
same,fc of IGDCC4 (expression array),Refseq NM_020962.1,−0.5216
same,RFPL1 expression fc,Refseq NM_021026.2,0.3402
